Literature values, collected in CN114306299A, “贝利司他在制备缓解和/或治疗缺血性脑卒中药物中的应用” (Institute of Materia Medica of CAMS and PUMC, priority 2020, dated 2022).

Tested on: stroke (脑卒中)
Conditions: clinical studies, fraction of patients

B1: t-PA: 美国FDA唯一批准用于治疗脑卒中的药物 (protein, UniProt P00750 36-562, looked up)
Tissue-type plasminogen …: SYQVICRDEKTQMIYQQHQSWLRPVLRSNRVEYCWCNSGRAQCHSVPVKSCSEPRCFNGGTCQQALYFSDFVCQCPEGFAGKCCEIDTRATCYEDQGISYRGTWSTAESGAECTNWNSSALAQKPYSGRRPDAIRLGLGNHNYCRNPDRDSKPWCYVFKAGKYSSEFCSTPACSEGNSDCYFGNGSAYRGTHSLTESGASCLPWNSMILIGKVYTAQNPSAQALGLGKHNYCRNPDGDAKPWCHVLKNRRLTWEYCDVPSCSTCGLRQYSQPQFRIKGGLFADIASHPWQAAIFAKHRRSPGERFLCGGILISSCWILSAAHCFQERFPPHHLTVILGRTYRVVPGEEEQKFEVEKYIVHKEFDDDTYDNDIALLQLKSDSSRCAQESSVVRTVCLPPADLQLPDWTECELSGYGKHEALSPFYSERLKEAHVRLYPSSRCTSQHLLNRTVTDNMLCAGDTRSGGPQANLHDACQGDSGGPLVCLNDGRMTLVGIISWGLGCGQKDVPGVYTKVTNYLDWIRDNMRP
patients in whom treatment is ineffective or condition worsens (after t-PA treatment): 三分之二 | patients in whom t-PA is effective: 三分之一
